Results published in IntAct's records for PubMed 29072299.

B1: Mothers against decapentaplegic homolog 4 (Mus musculus), P97471 (parent)
chain: MDNMSITNTPTSNDACLSIVHSLMCHRQGGESETFAKRAIESLVKKLKEKKDELDSLITAITTNGAHPSKCVTIQRTLDGRLQVAGRKGFPHVIYARLWRWPDLHKNELKHVKYCQYAFDLKCDSVCVNPYHYERVVSPGIDLSGLTLQSNAPSMLVKDEYVHDFEGQPSLPTEGHSIQTIQHPPSNRASTETYSAPALLAPAESNATSTTNFPNIPVASTSQPASILAGSHSEGLLQIASGPQPGQQQNGFTAQPATYHHNSTTTWTGSRTAPYTPNLPHHQNGHLQHHPPMPPHPGHYWPVHNELAFQPPISNHPAPEYWCSIAYFEMDVQVGETFKVPSSCPVVTVDGYVDPSGGDRFCLGQLSNVHRTEAIERARLHIGKGVQLECKGEGDVWVRCLSDHAVFVQSYYLDREAGRAPGDAVHKIYPSAYIKVFDLRQCHRQMQQQAATAQAAAAAQAAAVAGNIPGPGSVGGIAPAISLSAAAGIGVDDLRRLCILRMSFVKGWGPDYPRQSIKETPCWIEIHLHRALQLLDEVLHTMPIADPQPLD
partner: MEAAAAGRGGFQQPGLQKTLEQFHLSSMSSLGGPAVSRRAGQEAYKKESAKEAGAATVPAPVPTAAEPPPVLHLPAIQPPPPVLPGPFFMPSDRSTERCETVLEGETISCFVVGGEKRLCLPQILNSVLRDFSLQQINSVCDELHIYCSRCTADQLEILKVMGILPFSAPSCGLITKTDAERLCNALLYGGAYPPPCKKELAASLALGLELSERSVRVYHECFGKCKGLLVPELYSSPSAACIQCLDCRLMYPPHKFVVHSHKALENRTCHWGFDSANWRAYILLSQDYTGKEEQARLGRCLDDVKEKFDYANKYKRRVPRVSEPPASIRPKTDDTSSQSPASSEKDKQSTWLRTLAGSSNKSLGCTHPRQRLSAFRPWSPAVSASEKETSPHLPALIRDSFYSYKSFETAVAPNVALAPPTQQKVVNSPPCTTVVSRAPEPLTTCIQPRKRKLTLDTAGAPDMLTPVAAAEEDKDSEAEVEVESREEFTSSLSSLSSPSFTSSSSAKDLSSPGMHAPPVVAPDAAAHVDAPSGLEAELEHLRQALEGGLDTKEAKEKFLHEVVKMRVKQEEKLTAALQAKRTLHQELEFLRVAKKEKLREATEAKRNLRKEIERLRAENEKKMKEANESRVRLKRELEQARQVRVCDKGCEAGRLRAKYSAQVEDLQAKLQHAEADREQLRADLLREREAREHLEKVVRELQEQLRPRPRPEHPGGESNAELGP

Variants of: B1
Conditions: with ski_mouse Ski

Variant	effect of a mutation on the interaction
A432E	disrupting interaction strength
Y429A	disrupting interaction strength
